Experimental data published in patent US11840563B2, “Methods of treating cancer by administering inhibitory RNA molecules targeting protease serine 2 (PRSS2) expression” (Children's Medical Center Corporation, priority 2017, dated 2023).

Assays:
Tsp-1 [1] = assay: Western blot of Tsp-1/p53 in prostate fibroblasts treated with PC3 conditioned media with or without RAP or PKC inhibitor; assay type: cell-based; details: co-treatment with inhibitor
Excerpt: FIGS. 6A-6B. Western blot analysis of: (FIG. 6A) Tsp-1 and β-actin expression in prostate fibroblasts that were untreated (−) or treated with conditioned media from PC3 cells alone or in combination with RAP, and (FIG. 6B) Tsp-1, p53 and β-actin expression in prostate fibroblasts that were untreated (−) or treated with conditioned media from PC3 cells alone or in combination with the PKC inhibitor Go 6983 (PKCi).
Thus, in order to determine how prosaposin was able to stimulate the expression of Tsp-1 and p53 in tumor-associated fibroblasts, prostate fibroblasts were treated with PC3-conditioned media in the presence and absence of Receptor Associate Protein (RAP), a competitive inhibitor or LRP1 binding. […] To determine whether prosaposin-mediated stimulation of Tsp-1 utilized this pathway, fibroblasts were treated with CM from PC3 cells in the presence and absence of the PKC inhibitor Gö 6983. […] Thus, it is believed that Prosaposin functions via binding to LRP1.

Tsp-1 [2] = assay: Western blot of Tsp-1 in lung fibroblasts treated with LN4 CM alone or with STI or Rac1 inhibitor; assay type: cell-based; details: lung fibroblasts (W138 cells), co-treatment with LN4 conditioned media
Excerpt: FIG. 11. Western blot analysis of Tsp-1 and β-actin expression in lung fibroblasts that were untreated (−) or treated with LN4 CM alone or in combination with STI.
FIG. 12. Western blot analysis of Tsp-1 and β-actin expression in lung fibroblasts that were untreated (−) or treated with LN4 CM alone or in combination with Rac1 inhibitor.
Attention was then turned to the mechanism by which PC3M-LN4 cells repress Tsp-1 in the tumor microenvironment. In doing so, LN4 conditioned media (CM) was fractionated over a Cu^2+/heparin sepharose column with increasing concentrations of NaCl. The eluted fractions were used to treat lung fibroblasts and Tsp-1 induction was analyzed by western blot. […] By analyzing the protein content of the eluted fractions by tandem liquid chromatography/mass spectrometry (LC/MS), a protein was identified that was present in the active fractions of LN4 CM, but not present in the adjacent fractions or the fractions eluted with the same NaCl concentrations from PC3 CM. The identified protein was the serine protease PRSS2. […] Finally, the signaling pathway emanating from LRP1 that was mediating the PRSS2-induced repression of Tsp-1 was sought to be delineated. […]

Tsp-1 [3] = assay: Western blot of Tsp-1 in lung fibroblasts treated with psap peptide alone or with rhRAP or Y27632; assay type: cell-based; details: co-treatment with peptide, rhRAP 25 or 50 μg
Protocol: FIGS. 8A-8B. Western blot analysis of Tsp-1 and β-actin expression in lung fibroblasts, which were (FIG. 8A) untreated (−) or treated with psap peptide alone or in combination with 25 or 50 μg of rhRAP, and (FIG. 8B) untreated (−) or treated with psap peptide alone or with Y27632.
In order to delineate the pathway leading from LRP1 to Tsp-1 stimulation by prosaposin, two pathways that have been reported to be stimulated by LRP1 under different conditions were chosen to be examined: Rho and Rac.

PRSS2 = PRSS2 (Homo sapiens, UniProt P07478); assay: Co-immunoprecipitation of LRP1 peptides with PRSS2; assay type: binding
Protocol: (§1) FIGS. 16A-16B. Co-immunoprecipitation of LRP1 peptides with PSAP (FIG. 16A) or PRSS2 (FIG. 16B).
(§2) To map the binding sites on LRP1 that binds to prosaposin (PSAP) and/or PRSS2, peptides derived from binding domain I of LRP1 (SEQ ID NOs: 3 and 7-18) were tested for their ability to co-immunoprecipitate with PSAP or PRSS2.

prosaposin (PSAP) = target: T1, prosaposin (PSAP) (Homo sapiens, UniProt P07602); assay: Co-immunoprecipitation of LRP1 peptides with PSAP; assay type: binding
T1 sequence (P07602 60-524): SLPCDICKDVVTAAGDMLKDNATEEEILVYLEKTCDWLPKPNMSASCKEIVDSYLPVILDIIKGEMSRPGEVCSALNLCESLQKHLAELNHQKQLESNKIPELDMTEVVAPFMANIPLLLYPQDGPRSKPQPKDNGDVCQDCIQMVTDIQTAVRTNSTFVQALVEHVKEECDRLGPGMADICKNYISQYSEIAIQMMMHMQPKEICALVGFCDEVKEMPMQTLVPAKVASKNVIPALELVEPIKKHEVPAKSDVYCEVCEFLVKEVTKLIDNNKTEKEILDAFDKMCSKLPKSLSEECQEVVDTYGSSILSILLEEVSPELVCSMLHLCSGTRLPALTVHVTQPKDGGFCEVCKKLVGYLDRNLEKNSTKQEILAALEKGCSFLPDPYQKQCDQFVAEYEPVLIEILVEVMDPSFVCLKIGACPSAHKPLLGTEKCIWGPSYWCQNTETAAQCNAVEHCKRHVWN
Protocol: as §1, §2

PRSS2, sequence (P07478 16-247 limits assumed): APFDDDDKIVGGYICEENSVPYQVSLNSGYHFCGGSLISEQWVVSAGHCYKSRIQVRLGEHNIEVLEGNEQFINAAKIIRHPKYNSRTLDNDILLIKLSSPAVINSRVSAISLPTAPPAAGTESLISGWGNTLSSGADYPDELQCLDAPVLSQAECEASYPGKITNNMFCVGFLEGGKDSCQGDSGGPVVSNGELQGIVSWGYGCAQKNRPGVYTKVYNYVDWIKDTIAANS

COc1ccc2c(c1)c(C1=C(c3c[nH]c4ccccc34)C(=O)NC1=O)cn2CCCN(C)C [Gö 6983]
stimulation of Tsp-1 by PC3-conditioned media (Tsp-1 [1]): abolished the stimulation
stimulation of p53 by PC3-conditioned media (Tsp-1 [1]): abolished the stimulation

CCN(CC)CCCC(C)Nc1nc(C)cc(Nc2ccc3nc(C)cc(N)c3c2)n1 (racemic) [Rac1 inhibitor, reference compound]
effect on repression of Tsp-1 by LN4 CM (Tsp-1 [2]): Tsp-1 levels were restored to basal levels

C[C@@H](N)[C@H]1CC[C@H](C(=O)Nc2ccncc2)CC1 [Peptide Y27632, Y27632, reference compound]
effect on stimulation of Tsp-1 by the psap peptide (Tsp-1 [3]): completely abrogated

FICGCVEGYLLQPDNRSCKAKN [Peptide 13]
binding to PRSS2 (co-immunoprecipitation) (PRSS2; listed as peptide 13): bind to both PRSS2 and PSAP
binding to PSAP (co-immunoprecipitation) (prosaposin (PSAP); listed as peptide 13): bind to both PRSS2 and PSAP

YGTCSQLCTNTDGSFICGCVEGYLL [Peptide 12]
binding to PRSS2 (co-immunoprecipitation) (PRSS2; listed as peptide 12): bind to both PRSS2 and PSAP
binding to PSAP (co-immunoprecipitation) (prosaposin (PSAP); listed as peptide 12): bind to both PRSS2 and PSAP

B1: RAP: Receptor Associate Protein (RAP), a competitive inhibitor or LRP1 binding (protein, UniProt P30533 35-357, looked up)
Alpha-2-macroglobulin …: YSREKNQPKPSPKRESGEEFRMEKLNQLWEKAQRLHLPPVRLAELHADLKIQERDELAWKKLKLDGLDEDGEKEARLIRNLNVILAKYGLDGKKDARQVTSNSLSGTQEDGLDDPRLEKLWHKAKTSGKFSGEELDKLWREFLHHKEKVHEYNVLLETLSRTEEIHENVISPSDLSDIKGSVLHSRHTELKEKLRSINQGLDRLRRVSHQGYSTEAEFEEPRVIDLWDLAQSANLTDKELEAFREELKHFEAKIEKHNHYQKQLEIAHEKLRHAESVGDGERVSRSREKHALLEGRTKELGYTVKKHLQDLSGRISRARHNEL
effect on stimulation of Tsp-1 by the psap peptide (Tsp-1 [3]): blocked the stimulation of Tsp-1 in a dose-dependent fashion
stimulation of Tsp-1 by PC3-conditioned media (Tsp-1 [1]): no longer stimulated Tsp-1

B2: STI: serine protease inhibitor able to inhibit all members of the trypsin family (protein, UniProt P01070 25-205, looked up)
Trypsin inhibitor A: DFVLDNEGNPLENGGTYYILSDITAFGGIRAAPTGNERCPLTVVQSRNELDKGIGTIISSPYRIRFIAEGHPLSLKFDSFAVIMLCVGIPTEWSVVEDLPEGPAVKIGENKDAMDGWFRLERVSDDEFNNYKLVFCPQQAEDDKCGDIGISIDHDDGTRRLVVSKNKPLVVQFQKLDKESL
effect on repression of Tsp-1 by LN4 CM (Tsp-1 [2]): completely abrogated the repression of Tsp-1
